Assay results reported in article doi:10.1101/2022.12.30.522308 (bioRxiv, 2022).
Where two headings read alike, the source gives them in different places.

How the values were obtained:
[1] = biological target: T1, non-glycosylated binary hIL-9:hIL-9Rα complex (human, UniProt P15248 19-144; Q01113-1 40-261); test: ITC
[2] = biological target: T1, non-glycosylated binary hIL-9:hIL-9Rα …; test: ITC; remark: listed apart in the source
[3] = biological target: recombinant human IL-9 (R&D Systems) (Homo sapiens, UniProt P15248); test: BLI
[4] = biological target: recombinant mouse IL-9 (R&D Systems) (mouse, UniProt P15247); test: BLI
Sequence of recombinant mouse IL-9 (R&D Systems) (P15247 19-144): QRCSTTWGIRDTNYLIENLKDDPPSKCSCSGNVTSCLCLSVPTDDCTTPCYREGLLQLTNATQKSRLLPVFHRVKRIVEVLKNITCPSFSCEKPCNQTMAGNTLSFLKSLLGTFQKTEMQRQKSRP

T1 sequence (P15248 19-144, chain 1 of 2): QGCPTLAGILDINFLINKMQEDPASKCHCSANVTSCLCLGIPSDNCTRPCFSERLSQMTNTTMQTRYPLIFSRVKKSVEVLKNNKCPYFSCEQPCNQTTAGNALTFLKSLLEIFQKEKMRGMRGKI
T1 sequence (Q01113 40-261, chain 2 of 2): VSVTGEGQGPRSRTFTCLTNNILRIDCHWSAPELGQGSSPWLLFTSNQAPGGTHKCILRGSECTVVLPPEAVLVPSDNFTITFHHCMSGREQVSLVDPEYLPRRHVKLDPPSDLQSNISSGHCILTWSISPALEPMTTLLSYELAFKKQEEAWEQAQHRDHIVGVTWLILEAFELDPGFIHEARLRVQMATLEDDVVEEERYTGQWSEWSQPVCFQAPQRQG
Sequence of recombinant human IL-9 (R&D Systems) (P15248 19-144): as the sequence (P15248 19-144, chain 1 of 2) above

B1: trimmed extracellular domain of human common gamma chain (hγc, residues 56-254), produced in Sf9 cells (receptor, UniProt P31785-1 56-254, looked up)
chain: PLPEVQCFVFNVEYMNCTWNSSSEPQPTNLTLHYWYKNSDNDKVQKCSHYLFSEEITSGCQLQKKEIHLYQTFVVQLQDPREPRRQATQMLKLQNLVIPWAPENLTLHKLSESQLELNWNNRFLNHCLEHLVQYRTDWDHSWTEQSVDYRHKFSLPSVDGQKRYTFRVRSRFNPLCGSAQHWSEWSHPIHWGSNTSKEN
In the case of B1, the Kd [1] is reported as 2500 nM and the Kd [2] is reported as 9000 nM.

B2: anti-hIL-9 monoclonal antibody 7D6 (antibody, V domains shown)
VH: QLQLVESGPGLVKPSQTLSLTCTVSGGSITTGYYAWSWIRQPPGKGLEWMGFIARDGSTSYSPSLKSRTSISRDTSKNQFSLQLSSVTPEDTAVYYCARAGEGRSWYPGYYYGMDYWGKGTLVTVSS
VL: QAVVTQEPSLSVSPGGTVTLTCGLSSGSVTSSNYPGWYQQTPGQAPRVLIYNTNSRHSGVPSRYSGFISGNKAALTITGAEPEDEADYYCHLHKGSTGVFGGGTHLTVL
B2 gave a Kd [3] of 1.8 nM.

B3: anti-hIL-9 monoclonal antibody 6E2 (antibody, V domains shown)
VH: QVQLVESGGGLVQPGGSLRLSCAASGFTFSSSAMGWVRQAPGKGLEWVSTIVNSITTTYYADSVKGRFTISTDNAKNTLYLQIDSLKSEDTAVYYCGSLAGPYYDYWGQGTQVTVSS
VL: ALTQPSTVSVSLGQTARITCQGGSLGSYDAHWYQQKPGQAPVLVIHDNNSRPSGIPERFTGSRSGETATLTISGAQTEDEADYYCQSYDSTSDALVFGGGTQLTVL
In the case of B3, the Kd [3] is reported as 0.24 nM.

B4: anti-mIL-9 monoclonal antibody 35D8 (antibody, V domains shown)
VH: QVQLVESGPGLVQPSQTLSLTCTVSGGSITTSYYDWSWIRQPPGKGLEWMGAIAYSGNAYYSPSLKSRTSISRDTSKNQFTLQLSSVTPEDTAVYYCAREDHYSDTHGWNDYWGQGTQVTVSS
VL: ALTQPSAVSVSLGQTARITCQGGSIGNFGATWYQQKPGQAPVLLSLGEHSRPSGIPERFSGSKSGGTATLTISGAQAEDEADYYCQSFDYIGNDHVFGGGTHLTVL
B4: binds [4].
